Experimental data as given in patent publication US20250339569A1 (3B PHARMACEUTICALS, published 2025).
Starred links: 1 amine or outer side, 2 acyl side, 3 side chain; linkers in the order of their positions; H or OH if unused. Positions of bridges follow the written chain, without caps; N, C: chain ends. Non-standard residues stand in square brackets, D forms with d. Groups on a side chain read outwards from the residue. Primed or numbered codes have the meaning given here. *: point of attachment. Af3(4SaPy2Ac) = 3-amino-L-phenylalanine, ring amine acylated with (4-sulfamoylpyrazol-1-yl)acetic acid, NS(=O)(=O)c1cnn(CC(=O)Nc2cccc(C[C@H](N[*:1])C(=O)[*:2])c2)c1; Af3(Hsfu) = 3-amino-L-phenylalanine, ring amine acylated with 4-sulfamoylfuran-2-carboxylic acid, NS(=O)(=O)c1coc(C(=O)Nc2cccc(C[C@H](N[*:1])C(=O)[*:2])c2)c1; Aph(SaPr)″ = 4-amino-L-phenylalanine, ring amine acylated with 3-sulfamoylpropanoic acid, NS(=O)(=O)CCC(=O)Nc1ccc(C[C@H](N[*:1])C(=O)[*:2])cc1; Aph(SaPr) = 4-amino-L-phenylalanine, ring amine acylated by 3-sulfamoylpropanoic acid, NS(=O)(=O)CCC(=O)Nc1ccc(C[C@H](N[*:1])C(=O)[*:2])cc1; Af3(MSAc) = 3-aminophenylalanine with 2-methanesulfonylacetyl on the ring amine, CS(=O)(=O)CC(=O)Nc1cccc(C[C@H](N[*:1])C(=O)[*:2])c1; Phe(3-NHCO(CH2)3SO2NH2) = N[C@@H](Cc1cccc(NC(=O)CCCS(N)(=O)=O)c1)C(=O)O; APAc″ = 2-(4-(amino)piperidin-1-yl)acetic acid, NC1CCN(CC(=O)*)CC1; DOTA = O=C(O)CN1CCN(CC(=O)O)CCN(CC(=O)*)CCN(CC(=O)O)CC1; PPAc = 4-carboxymethyl piperazine linker; mXylylene = c1cc(C[*:1])cc(C[*:2])c1; N4BzlCl = not defined here; 3Amb = NCc1cccc(C(=O)O)c1; 4Amb = NCc1ccc(C(=O)O)cc1; hSer = N[C@@H](CCO)C(=O)O; AGLU′ = not defined here; 4Amc = not defined here; APAc = not defined here; Inp′ = not defined here; Apr = not defined here; Cmp = not defined here; Dap = NC[C@H](N)C(=O)O; Nlys = NCCCCNCC(=O)O; Bn = c1ccc(C*)cc1

B1: 3BP-3565 (peptide)
peptide: Ac-VYCE[dP]DWLTWSC-NH2
modifications: linker 3-12 via mXylylene
SMILES: CC(=O)N[C@H](C(=O)N[C@@H](Cc1ccc(O)cc1)C(=O)N[C@H]1CSCc2cccc(c2)CSC[C@@H](C(N)=O)NC(=O)[C@H](CO)NC(=O)[C@H](Cc2c[nH]c3ccccc23)NC(=O)[C@H]([C@@H](C)O)NC(=O)[C@H](CC(C)C)NC(=O)[C@H](Cc2c[nH]c3ccccc23)NC(=O)[C@H](CC(=O)O)NC(=O)[C@H]2CCCN2C(=O)[C@H](CCC(=O)O)NC1=O)C(C)C
B2: 3BP-3282 (peptide)
peptide: Ac-VYCE[dP]DWLTWAC-NH2
modifications: linker 3-12 via mXylylene
SMILES: CC(=O)N[C@H](C(=O)N[C@@H](Cc1ccc(O)cc1)C(=O)N[C@H]1CSCc2cccc(c2)CSC[C@@H](C(N)=O)NC(=O)[C@H](C)NC(=O)[C@H](Cc2c[nH]c3ccccc23)NC(=O)[C@H]([C@@H](C)O)NC(=O)[C@H](CC(C)C)NC(=O)[C@H](Cc2c[nH]c3ccccc23)NC(=O)[C@H](CC(=O)O)NC(=O)[C@H]2CCCN2C(=O)[C@H](CCC(=O)O)NC1=O)C(C)C
B3: 3BP-3905 (peptide)
peptide: {DOTA-APAc}-VYCE[dP]DWLTWSC-NH2
modifications: linker 3-12 via mXylylene; reading uncertain; also: ['indium complexed by DOTA']
B4: 3BP-4453 (peptide)
peptide: {DOTA}-QCE[dP]D[Phe(3-NHCO(CH2)3SO2NH2)]LTWSC-NH2
modifications: linker 2-11 via mXylylene
SMILES: CC(C)C[C@@H]1NC(=O)[C@H](Cc2cccc(NC(=O)CCCS(N)(=O)=O)c2)NC(=O)[C@H](CC(=O)O)NC(=O)[C@H]2CCCN2C(=O)[C@H](CCC(=O)O)NC(=O)[C@@H](NC(=O)[C@H](CCC(N)=O)NC(=O)CN2CCN(CC(=O)O)CCN(CC(=O)O)CCN(CC(=O)O)CC2)CSCc2cccc(c2)CSC[C@@H](C(N)=O)NC(=O)[C@H](CO)NC(=O)[C@H](Cc2c[nH]c3ccccc23)NC(=O)[C@H]([C@@H](C)O)NC1=O
B5: 3BP-4253 (peptide)
peptide: {DOTA}-DCE[dP]DWLTW[Dap]C-NH2
modifications: lactam 10-1; linker 2-11 via mXylylene
SMILES: CC(C)C[C@@H]1NC(=O)[C@H](Cc2c[nH]c3ccccc23)NC(=O)[C@H](CC(=O)O)NC(=O)[C@H]2CCCN2C(=O)[C@H](CCC(=O)O)NC(=O)[C@@H]2CSCc3cccc(c3)CSC[C@@H](C(N)=O)NC(=O)[C@H](CNC(=O)C[C@H](NC(=O)CN3CCN(CC(=O)O)CCN(CC(=O)O)CCN(CC(=O)O)CC3)C(=O)N2)NC(=O)[C@H](Cc2c[nH]c3ccccc23)NC(=O)[C@H]([C@@H](C)O)NC1=O
B6: 3BP-4260 (peptide)
peptide: {DOTA-3Amb}-DCE[dP]DWLTW[Dap]C-NH2
modifications: lactam 10-1; linker 2-11 via mXylylene
SMILES: CC(C)C[C@@H]1NC(=O)[C@H](Cc2c[nH]c3ccccc23)NC(=O)[C@H](CC(=O)O)NC(=O)[C@H]2CCCN2C(=O)[C@H](CCC(=O)O)NC(=O)[C@@H]2CSCc3cccc(c3)CSC[C@@H](C(N)=O)NC(=O)[C@H](CNC(=O)C[C@H](NC(=O)c3cccc(CNC(=O)CN4CCN(CC(=O)O)CCN(CC(=O)O)CCN(CC(=O)O)CC4)c3)C(=O)N2)NC(=O)[C@H](Cc2c[nH]c3ccccc23)NC(=O)[C@H]([C@@H](C)O)NC1=O
B7: 3BP-4261 (peptide)
peptide: {DOTA-4Amb}-DCE[dP]DWLTW[Dap]C-NH2
modifications: lactam 10-1; linker 2-11 via mXylylene
SMILES: CC(C)C[C@@H]1NC(=O)[C@H](Cc2c[nH]c3ccccc23)NC(=O)[C@H](CC(=O)O)NC(=O)[C@H]2CCCN2C(=O)[C@H](CCC(=O)O)NC(=O)[C@@H]2CSCc3cccc(c3)CSC[C@@H](C(N)=O)NC(=O)[C@H](CNC(=O)C[C@H](NC(=O)c3ccc(CNC(=O)CN4CCN(CC(=O)O)CCN(CC(=O)O)CCN(CC(=O)O)CC4)cc3)C(=O)N2)NC(=O)[C@H](Cc2c[nH]c3ccccc23)NC(=O)[C@H]([C@@H](C)O)NC1=O

Molecular target: T1, Fc-fusion protein of human carbonic anhydrase IX (human, UniProt Q16790 38-414)
Assay: SPR, captured hCAIX-Fc; t1/2 category A: >15.0 min
Experimental: (§1) Stock solutions of test compounds were prepared by dissolving each compound in DMSO. DMSO stock solution were diluted 1:1000 in Running Buffer without DMSO. […] SPR binding analyses were performed in Single Cycle Kinetic (SCK) mode at 25° C.
(§2) For each test compound, SPR raw data in the form of resonance units (RU) were plotted as sensorgrams using the Biacore™ T200 control software. The signal from the blank sensorgram was subtracted from that of the test compound sensorgram (blank corrected). The blank corrected sensorgram was corrected for baseline drift by subtracting the sensorgram of a SCK run without the test compound (running buffer only). […] Raw data and fit results were imported as text files in IDBS. The pKD value (negative decadic logarithm of dissociation constant) was calculated in the IDBS excel template.

Binder | t1/2 (half-life of the complex, SPR) [min]
B1 | > 15
B2 | > 15
{DOTA-APAc″}-VYCE[dP]DWLTWAC-NH2 (linker 3-12 via mXylylene) [3BP-3432] | > 15
Ac-VYCE[dP]DWLTWE([Apr-DOTA])C-NH2 (linker 3-12 via mXylylene; reading uncertain) [3BP-3478] | > 15
{DOTA-APAc}-VYCE[dP]NWLTWSC-NH2 (linker 3-12 via mXylylene; reading uncertain) [3BP-4103] | > 15
{DOTA-APAc}-VYCE[dP]DWLE(AGLU′)WSC-NH2 (linker 3-12 via mXylylene; reading uncertain) [3BP-4121] | > 15
{DOTA-APAc}-VYCE[dP]DWLTWEC-NH2 (linker 3-12 via mXylylene; not fully specified (residue 11); reading uncertain) [3BP-4122] | > 15
{DOTA-APAc}-VYCE[dP]C(Bn)WLTWSC-NH2 (linker 3-12 via mXylylene; not fully specified; reading uncertain) [3BP-4128] | > 15
{DOTA-APAc″}-VYCE[dP]E(N4BzlCl)WLTWSC-NH2 (linker 3-12 via mXylylene; reading uncertain) [3BP-4334] | > 15
Ac-VYCE[Nlys](DOTA)DWLTWAC-NH2 (linker 3-12 via mXylylene) [3BP-3562] | > 15
B3 | > 15
{DOTA-APAc}-VYCE[dP][hSer]WLTWSC-NH2 (linker 3-12 via mXylylene; reading uncertain) [3BP-4102] | > 15
B4 | > 15
{DOTA-PPAc}-QCE[dP]D[Aph(SaPr)]LTWSC-NH2 (linker 2-11 via mXylylene) [3BP-4500] | > 15
{GaDOTA-PPAc}-QCE[dP]D[Phe(3-NHCO(CH2)3SO2NH2)]LTWSC-NH2 (linker 2-11 via mXylylene; also: gallium in DOTA, also called natGa-DPI-4452) [3BP-4529] | > 15
{DOTA}-QCE[dP]D[Aph(SaPr)″]LTWSC-NH2 (linker 2-11 via mXylylene; also: Ga complexed in DOTA) [3BP-4602] | > 15
{DOTA-PPAc}-QCE[dP]D[Af3(Hsfu)]LTWSC-NH2 (linker 2-11 via mXylylene) [3BP-4788] | > 15
{DOTA-PPAc}-QCE[dP]D[Af3(4SaPy2Ac)]LTWSC-NH2 (linker 2-11 via mXylylene) [3BP-4790] | > 15

Molecular target: T1, Fc-fusion protein of human carbonic …
Assay: SPR, captured hCAIX-Fc; pKD category A: >8.0
Experimental: as §1, §2

Binder | pKD [pkd]
B1 | > 8
B2 | > 8
{DOTA-APAc″}-VYCE[dP]DWLTWAC-NH2 (linker 3-12 via mXylylene) [3BP-3432] | > 8
Ac-VYCE[dP]DWLTWE([Apr-DOTA])C-NH2 (linker 3-12 via mXylylene; reading uncertain) [3BP-3478] | > 8
{DOTA-APAc}-VYCE[dP]NWLTWSC-NH2 (linker 3-12 via mXylylene; reading uncertain) [3BP-4103] | > 8
{DOTA-APAc}-VYCE[dP]DWLE(AGLU′)WSC-NH2 (linker 3-12 via mXylylene; reading uncertain) [3BP-4121] | > 8
{DOTA-APAc}-VYCE[dP]DWLTWEC-NH2 (linker 3-12 via mXylylene; not fully specified (residue 11); reading uncertain) [3BP-4122] | > 8
{DOTA-APAc}-VYCE[dP]C(Bn)WLTWSC-NH2 (linker 3-12 via mXylylene; not fully specified; reading uncertain) [3BP-4128] | > 8
{DOTA-APAc″}-VYCE[dP]E(N4BzlCl)WLTWSC-NH2 (linker 3-12 via mXylylene; reading uncertain) [3BP-4334] | > 8
Ac-VYCE[Nlys](DOTA)DWLTWAC-NH2 (linker 3-12 via mXylylene) [3BP-3562] | > 8
B3 | > 8
{DOTA-APAc}-VYCE[dP][hSer]WLTWSC-NH2 (linker 3-12 via mXylylene; reading uncertain) [3BP-4102] | > 8

Molecular target: human carbonic anhydrase 9 (CAIX) (human, UniProt Q16790 38-459)
Assay: FACS competition on HT-29 cells, competitor tracer 3BP-2776; category A = pIC50 >8.0

Binder | pIC50 [pic50]
{DOTA-APAc″}-VYCE[dP]D[Af3(MSAc)]LTWSC-NH2 (linker 3-12 via mXylylene) [3BP-4242] | > 8
B5 | > 8
{DOTA-APAc″}-DCE[dP]DWLTW[Dap]C-NH2 (lactam 10-1; linker 2-11 via mXylylene) [3BP-4254] | > 8
{DOTA-PPAc}-DCE[dP]DWLTW[Dap]C-NH2 (lactam 10-1; linker 2-11 via mXylylene) [3BP-4255] | > 8
{DOTA-Inp′}-DCE[dP]DWLTW[Dap]C-NH2 (lactam 10-1; linker 2-11 via mXylylene) [3BP-4256] | > 8
{DOTA-4Amc}-DCE[dP]DWLTW[Dap]C-NH2 (lactam 10-1; linker 2-11 via mXylylene; reading uncertain) [3BP-4258] | > 8
{DOTA-Cmp}-DCE[dP]DWLTW[Dap]C-NH2 (lactam 10-1; linker 2-11 via mXylylene; reading uncertain) [3BP-4259] | > 8
B6 | > 8
B7 | > 8
